pKd: −log10 of the molar value.
What was measured:
HER2 antigen = HER2 antigen (UniProt P04626); assay: ELISA
[1] = target: EGFR1 antigen (Homo sapiens (assumed)) (UniProt P00533); assay: ELISA

Row | pKd (HER2 antigen) | pKd [1] | Substance
1 | 7.32 |  | ZHER2:4 affibody (designed binder)
2 |  | 8.46 | anti-EGFR1 nanobody 7D12 (VHH)
